From article PMC10981947
Blank lines part the entries; values can stand above or below the molecule they belong to.

Experiments:
[1] = molecular target: LeuT-AA, dimer interface mutant of LeuT (F488A and Y489A), C-terminally GFP-tagged
[2] = molecular target: TrkA^ECD+TM, truncation mutant of TrkA containing the extracellular and transmembrane domains, C-terminally GFP-tagged
[3] = molecular target: TrkA^ECD+TM, truncation mutant of TrkA containing the extracellular and transmembrane domains, C-terminally GFP-tagged; remark: listed apart in the source
[4] = molecular target: TrkA^TM, truncation mutant of TrkA containing only the transmembrane domain, C-terminally GFP-tagged
[5] = molecular target: sugar transporter SemiSWEET, C-terminally GFP-tagged
[6] = molecular target: T1, potassium ion channel KcsA, C-terminally GFP-tagged, P0A334; conditions: remark: other sources report otherwise
T1 chain: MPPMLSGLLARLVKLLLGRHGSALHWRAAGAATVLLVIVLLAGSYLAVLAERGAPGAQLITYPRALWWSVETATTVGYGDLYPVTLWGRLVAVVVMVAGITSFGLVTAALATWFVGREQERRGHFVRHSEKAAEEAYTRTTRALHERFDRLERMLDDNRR

percent dimer [1]: 36%
percent monomer [1]: 53%
Molecule: LeuT-AA, dimer interface mutant of LeuT (F488A and Y489A), C-terminally GFP-tagged (natural protein)

percent dimer (no NGF) [2]: 40%
percent higher-order oligomers (no NGF) [2]: 5%
percent monomer (no NGF) [2]: 55%
percent dimer (NGF-treated, fraction 1) [3]: 47%
percent higher-order oligomers (NGF-treated, fraction 1) [3]: 30%
percent monomer (NGF-treated, fraction 1) [3]: 22%
Molecule: TrkA^ECD+TM, truncation mutant of TrkA containing the extracellular and transmembrane domains, C-terminally GFP-tagged (domain or fragment)

percent dimer (no NGF) [4]: 35%
percent higher-order oligomers (no NGF) [4]: 2%
percent monomer (no NGF) [4]: 60%
Molecule: TrkA^TM, truncation mutant of TrkA containing only the transmembrane domain, C-terminally GFP-tagged (domain or fragment)

stoichiometry N [5]: 2
Molecule: sugar transporter SemiSWEET, C-terminally GFP-tagged (natural protein)

stoichiometry N [6]: 4
B1: potassium ion channel KcsA, C-terminally GFP-tagged, P0A334 1-160 (natural protein)
chain: MPPMLSGLLARLVKLLLGRHGSALHWRAAGAATVLLVIVLLAGSYLAVLAERGAPGAQLITYPRALWWSVETATTVGYGDLYPVTLWGRLVAVVVMVAGITSFGLVTAALATWFVGREQERRGHFVRHSEKAAEEAYTRTTRALHERFDRLERMLDDNRR
